In this experiment the target is Mu8.1 conotoxin from Conus mucronatus (Conus mucronatus). Briefly: crystal structure.

In publication PMC10478764 one finds stoichiometry N data, which are given here for one substance.

“Mu8.1 conotoxin from Conus mucronatus (natural protein)” came in with a stoichiometry N of 2.
